Assay results published in publication doi:10.1101/2021.02.22.432310.

Target: mGFP-UvrD (genomically integrated) (E. coli) (UniProt P03018)
Experiment: single-molecule fluorescence microscopy

“mGFP-UvrD (genomically integrated) (from UniProt P03018 1-720) (enzyme)” showed a stoichiometry N of 4.
